Columns and labels:
[1] = target: T1, Recombinant Human CEACAM-5/CD66e Protein, CF (R & D SYSTEMS) (human, UniProt P06731 35-685); test: SPR, Biacore T200; CEACAM5 immobilized by amine coupling (279 RU), CEA-V2122 as analyte, single-cycle kinetics, bivalent analysis fit (KD = kd1/ka1)
T1 construct: Bought protein, immobilized on the sensor chip by amine coupling
T1 sequence (looked up): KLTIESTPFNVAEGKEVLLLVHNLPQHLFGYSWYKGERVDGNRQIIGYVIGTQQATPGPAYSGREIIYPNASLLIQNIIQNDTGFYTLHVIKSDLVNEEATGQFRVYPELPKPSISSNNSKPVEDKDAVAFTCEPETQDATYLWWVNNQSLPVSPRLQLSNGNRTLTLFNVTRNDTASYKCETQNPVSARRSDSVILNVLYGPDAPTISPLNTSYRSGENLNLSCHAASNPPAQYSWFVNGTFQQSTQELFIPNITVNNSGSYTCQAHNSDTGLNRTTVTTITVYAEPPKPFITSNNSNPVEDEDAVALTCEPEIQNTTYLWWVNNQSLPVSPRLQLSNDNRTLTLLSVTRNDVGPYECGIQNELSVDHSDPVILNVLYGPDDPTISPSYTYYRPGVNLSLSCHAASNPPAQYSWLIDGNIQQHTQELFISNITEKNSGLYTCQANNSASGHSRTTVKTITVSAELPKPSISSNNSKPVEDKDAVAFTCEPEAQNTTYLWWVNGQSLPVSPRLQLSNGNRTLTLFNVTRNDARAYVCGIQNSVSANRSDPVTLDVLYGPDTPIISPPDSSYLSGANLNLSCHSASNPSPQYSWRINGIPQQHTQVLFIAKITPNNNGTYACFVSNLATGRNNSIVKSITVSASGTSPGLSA

[2] = target: T2, Recombinant Human CEACAM-5/CD66e Protein (Homo sapiens, UniProt P06731); test: SPR (Biacore T200) affinity of CEA-V2122 for antigen CEACAM5; format: binding
T2 construct: purchased R & D SYSTEMS
T2 sequence (P06731 35-676): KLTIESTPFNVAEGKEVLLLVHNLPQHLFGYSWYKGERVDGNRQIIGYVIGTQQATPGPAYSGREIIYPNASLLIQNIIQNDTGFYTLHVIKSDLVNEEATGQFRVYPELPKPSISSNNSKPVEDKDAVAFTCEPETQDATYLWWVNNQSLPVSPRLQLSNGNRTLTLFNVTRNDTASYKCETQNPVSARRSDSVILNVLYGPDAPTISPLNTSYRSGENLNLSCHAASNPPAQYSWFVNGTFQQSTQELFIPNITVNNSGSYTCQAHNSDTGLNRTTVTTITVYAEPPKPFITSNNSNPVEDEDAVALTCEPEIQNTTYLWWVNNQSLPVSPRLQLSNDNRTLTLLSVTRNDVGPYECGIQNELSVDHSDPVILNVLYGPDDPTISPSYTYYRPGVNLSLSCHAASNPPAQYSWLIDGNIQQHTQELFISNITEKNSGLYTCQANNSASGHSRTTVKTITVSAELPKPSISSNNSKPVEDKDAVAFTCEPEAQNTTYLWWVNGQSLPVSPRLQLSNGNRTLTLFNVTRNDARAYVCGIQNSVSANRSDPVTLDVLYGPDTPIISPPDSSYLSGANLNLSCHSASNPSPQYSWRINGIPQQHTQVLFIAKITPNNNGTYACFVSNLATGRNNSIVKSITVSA

CEACAM5 = target: T3, CEACAM5 (Homo sapiens, UniProt P06731); test: cell staining of CEACAM5-expressing cell line using FITC-labeled CEA-V2122; format: cell-based
T3 construct: endogenous in cells; host or cells: MKN-45 (CEACAM5-positive); DLD1 (CEACAM5-negative control)
T3 sequence (P06731 35-676): T2 sequence (P06731 35-676)
Procedure: In order to stain a CEACAM5 expression-positive cancer cell line, FITC labeling was carried out on the cell line, using 100 μg of a purified CEA-V2122 protein. Specifically, labeling was carried out using Fluorescein Labeling Kit—NH2 (DOJINDO LABORATORIES) in accordance with the protocol and amount described in the operating manual included with the kit, and the obtained product was defined to be CEA-V2122-FITC. Specific staining of the CEACAM5 expression-positive cancer cell line is as follows. That is, CEACAM5-positive human stomach cancer-derived MKN-45 cells and CEACAM5-negative human colon cancer-derived DLD1 cells were each seeded on a CELLSTAR, μClear, 96-well plate (Greiner) to a cell density of 2.0×10^4 cells/well, and thereafter, the cells were cultured overnight. Subsequently, a culture solution containing 20 nM CEA-V2122-FITC and 1 μM Hoechist was added to the 96-well plate to a concentration of 100 μL/well, and the obtained mixture was then reacted at 4° C. for 30 minutes. Thereafter, each image was taken using In Cell Analyzer 6000 (GE Healthcare Life Sciences).

[3] = single-cycle kinetics, bivalent analysis mode

B1: CEA-V2122 (scFv)
chain: QVKLEQSGAEVVKPGASVKLSCKASGFNIKDSYMHWLRQGPGQRLEWIGWIDPENGDTEYAPKFQGKATFTTDTSANTAYLGLSSLRPEDTAVYYCNEGTPTGPYYFDYWGQGTLVTVSSGGGGSGGGGSGGGGSENVLTQSPSSMSVSVGDRVNIACSASSSVPYMHWLQQKPGKSPKLLIYLTSNLASGVPSRFSGSGSGTDYSLTISSVQPEDAATYYCQQRSSYPLTFGGGTKLEIKGGGGSGGGGAEAGITGTWSDQLGDTFIVTAGADGALTGTYENAVGGAESRYVLTGRYDSAPATDGSGTALGWTVAWKNNSKNAHSATTWSGQYVGGADAKINTQWLLTSGTTNANAWKSTLVGHDTFTKVKPSAASHHHHHH
notes: Fusion of an anti-CEACAM5 scFv and mutant streptavidin V2122; also called CEA-Cupid; scFv-V2122
B1 was tested. Which Kd [1] did it give?
Its Kd is 1.08 pM.

B2: CEA-V2122: scFv-type anti-CEACAM5 antibody bound with mutant streptavidin V2122 via an amino acid linker, SEQ ID NO: 14 (protein)
chain: B1 chain
With B2 as the molecule, how does the “KD=kd1/ka1” value ([2]; bivalent analysis) read?
The value was 1.078E−12.

What about the “binding to CEACAM5 (FIG. 5)” value ([2]; from the KD value in the sensorgram) of the same molecule?
The value was “strongly binds to CEACAM5”.

And the ka1 [2, 3]?
Its ka1 is 3.208E+5.

And the kd1 [2, 3]?
The kd1 was 3.461E−7.

B3: CEA-V2122-FITC: purified CEA-V2122 protein labeled with Fluorescein Labeling Kit—NH2 (conjugate)
chain: B1 chain
Which “recognition of CEACAM5 on cells (FIG. 7)” value (CEACAM5; 20 nM, 4° C. 30 minutes, CEACAM5-positive MKN-45 vs CEACAM5-negative DLD1 cells) does the source give for B3 here?
The value was “specifically recognizes CEACAM5 on the surface of the cell membrane”.

And the “localisation of CEACAM5 after binding (FIG. 8)” value (CEACAM5; time-series images of MKN45 cells)?
The value was “the CEACAM5 stays on the surface of the cell membrane”.

Reference: US20220016245A1, “CONJUGATE OF BIOTIN-MODIFIED DIMER AND PHTHALOCYANINE DYE” (The University of Tokyo, priority 2018, published 2022)
